Tested on: Escherichia coli TOP10
Experiment: shrunken log2 fold change of peptide-encoding DNA abundance (4.5 h post-induction vs induction); higher = less antimicrobial activity (less host growth inhibition)
Details: time post-induction: 4.5 h; library: site-saturation at positions 5, 18, 19, 20
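Further: peptides expressed intracellularly from a pBAD plasmid library in pooled LB shake-flask culture, induced with 0.3% L-arabinose, DNA abundance read by NGS, three biological replicates, DESeq2 with apeglm shrinkage.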

Sequence: RRIRNRPPRLPRPRPRPCWVPRP
- shrunken log2 fold change: -0.0518

Sequence: RRIRDRPPRLPRPRPRPNTKPRP
- shrunken log2 fold change: -0.124

Sequence: RRIRKRPPRLPRPRPRPHMDPRP
- shrunken log2 fold change: 0.0185

Sequence: RRIRKRPPRLPRPRPRPAQNPRP
- shrunken log2 fold change: 0.943

Sequence: RRIRTRPPRLPRPRPRPMAFPRP
- shrunken log2 fold change: -0.0075

Sequence: RRIRIRPPRLPRPRPRPYRHPRP
- shrunken log2 fold change: -0.0614

Sequence: RRIRCRPPRLPRPRPRPNWYPRP
- shrunken log2 fold change: 0.09

Sequence: RRIRDRPPRLPRPRPRPPEYPRP
- shrunken log2 fold change: -0.0893

Sequence: RRIRHRPPRLPRPRPRPPWYPRP
- shrunken log2 fold change: -0.232

Sequence: RRIRFRPPRLPRPRPRPEQVPRP
- shrunken log2 fold change: 0.0138

Sequence: RRIRDRPPRLPRPRPRPTRMPRP
- shrunken log2 fold change: 0.154

Sequence: RRIRMRPPRLPRPRPRPGHDPRP
- shrunken log2 fold change: 0.0618

Sequence: RRIRNRPPRLPRPRPRPLKQPRP
- shrunken log2 fold change: 0.114

Sequence: RRIRFRPPRLPRPRPRPEGNPRP
- shrunken log2 fold change: -0.0429

Sequence: RRIRTRPPRLPRPRPRPMSQPRP
- shrunken log2 fold change: -0.000911

Sequence: RRIRERPPRLPRPRPRPHFFPRP
- shrunken log2 fold change: -0.154

Sequence: RRIRVRPPRLPRPRPRPYHFPRP
- shrunken log2 fold change: -0.111

Sequence: RRIRDRPPRLPRPRPRPSGVPRP
- shrunken log2 fold change: 0.119

Sequence: RRIRCRPPRLPRPRPRPREDPRP
- shrunken log2 fold change: 0.0389

Sequence: RRIRGRPPRLPRPRPRPNLTPRP
- shrunken log2 fold change: 0.374

Sequence: RRIRVRPPRLPRPRPRPRQAPRP
- shrunken log2 fold change: 0.224

Sequence: RRIRVRPPRLPRPRPRPCDYPRP
- shrunken log2 fold change: -0.845

Sequence: RRIRLRPPRLPRPRPRPCWLPRP
- shrunken log2 fold change: 0.0345

Sequence: RRIRARPPRLPRPRPRPSWSPRP
- shrunken log2 fold change: 0.0204

Sequence: RRIRRRPPRLPRPRPRPRVVPRP
- shrunken log2 fold change: 0.215

Sequence: RRIRPRPPRLPRPRPRPRQSPRP
- shrunken log2 fold change: 0.0298

Sequence: RRIRKRPPRLPRPRPRPGNDPRP
- shrunken log2 fold change: 0.054

Sequence: RRIRNRPPRLPRPRPRPENCPRP
- shrunken log2 fold change: 0.0518

Sequence: RRIRRRPPRLPRPRPRPTMWPRP
- shrunken log2 fold change: 0.364

Sequence: RRIRNRPPRLPRPRPRPYQAPRP
- shrunken log2 fold change: 0.036

Sequence: RRIRQRPPRLPRPRPRPVFPPRP
- shrunken log2 fold change: 0.212

Sequence: RRIRWRPPRLPRPRPRPNQKPRP
- shrunken log2 fold change: -0.0347

Sequence: RRIRVRPPRLPRPRPRPNALPRP
- shrunken log2 fold change: -0.379

Sequence: RRIRQRPPRLPRPRPRPNNPPRP
- shrunken log2 fold change: -0.282

Sequence: RRIRIRPPRLPRPRPRPWDHPRP
- shrunken log2 fold change: 0.0393

Sequence: RRIRTRPPRLPRPRPRPHDMPRP
- shrunken log2 fold change: 0.000904

Sequence: RRIRMRPPRLPRPRPRPFMPPRP
- shrunken log2 fold change: -0.127

Sequence: RRIRSRPPRLPRPRPRPYGAPRP
- shrunken log2 fold change: -0.318

Sequence: RRIRIRPPRLPRPRPRPLEVPRP
- shrunken log2 fold change: -0.0958

Sequence: RRIRQRPPRLPRPRPRPAGFPRP
- shrunken log2 fold change: 0.266

Sequence: RRIRWRPPRLPRPRPRPYRSPRP
- shrunken log2 fold change: 0.0201

Sequence: RRIRFRPPRLPRPRPRPQNPPRP
- shrunken log2 fold change: -0.231

Sequence: RRIRYRPPRLPRPRPRPNTNPRP
- shrunken log2 fold change: -1.09

Sequence: RRIRMRPPRLPRPRPRPMIWPRP
- shrunken log2 fold change: 0.237

Sequence: RRIRNRPPRLPRPRPRPKYYPRP
- shrunken log2 fold change: -0.887

Sequence: RRIRARPPRLPRPRPRPWQIPRP
- shrunken log2 fold change: -0.0641

Sequence: RRIRRRPPRLPRPRPRPSWTPRP
- shrunken log2 fold change: 0.46

Sequence: RRIRIRPPRLPRPRPRPNQDPRP
- shrunken log2 fold change: -0.507

Sequence: RRIRVRPPRLPRPRPRPNAYPRP
- shrunken log2 fold change: -0.572

Sequence: RRIRDRPPRLPRPRPRPQLQPRP
- shrunken log2 fold change: -0.16

Sequence: RRIRWRPPRLPRPRPRPVSVPRP
- shrunken log2 fold change: -0.258

Sequence: RRIRFRPPRLPRPRPRPWCNPRP
- shrunken log2 fold change: -0.267

Sequence: RRIRVRPPRLPRPRPRPVCIPRP
- shrunken log2 fold change: -0.0826

Sequence: RRIRCRPPRLPRPRPRPHNAPRP
- shrunken log2 fold change: -0.171

Sequence: RRIRERPPRLPRPRPRPPYMPRP
- shrunken log2 fold change: -1.73

Sequence: RRIRQRPPRLPRPRPRPKKKPRP
- shrunken log2 fold change: -0.0791

Sequence: RRIRDRPPRLPRPRPRPNEMPRP
- shrunken log2 fold change: 0.00902

Sequence: RRIRERPPRLPRPRPRPSANPRP
- shrunken log2 fold change: -0.35

Sequence: RRIRSRPPRLPRPRPRPKTRPRP
- shrunken log2 fold change: 0.156

Sequence: RRIRGRPPRLPRPRPRPKMAPRP
- shrunken log2 fold change: 0.0451

Sequence: RRIRKRPPRLPRPRPRPDVRPRP
- shrunken log2 fold change: 0.0826

Sequence: RRIRCRPPRLPRPRPRPMRSPRP
- shrunken log2 fold change: 0.211

Sequence: RRIRNRPPRLPRPRPRPLAFPRP
- shrunken log2 fold change: 0.0414

Sequence: RRIRCRPPRLPRPRPRPQNNPRP
- shrunken log2 fold change: -0.526

Sequence: RRIRQRPPRLPRPRPRPHWNPRP
- shrunken log2 fold change: -0.703

Sequence: RRIRQRPPRLPRPRPRPPRWPRP
- shrunken log2 fold change: 0.303

Sequence: RRIRHRPPRLPRPRPRPPKEPRP
- shrunken log2 fold change: 0.121

Sequence: RRIRRRPPRLPRPRPRPGWLPRP
- shrunken log2 fold change: 0.427

Sequence: RRIRDRPPRLPRPRPRPYPGPRP
- shrunken log2 fold change: -0.0524

Sequence: RRIRGRPPRLPRPRPRPAIVPRP
- shrunken log2 fold change: 0.0899

Sequence: RRIRWRPPRLPRPRPRPGWMPRP
- shrunken log2 fold change: 0.366

Sequence: RRIRDRPPRLPRPRPRPCHKPRP
- shrunken log2 fold change: -0.00188

Sequence: RRIRQRPPRLPRPRPRPINIPRP
- shrunken log2 fold change: -0.21

Sequence: RRIRSRPPRLPRPRPRPVEGPRP
- shrunken log2 fold change: -0.00141

Sequence: RRIRARPPRLPRPRPRPMLGPRP
- shrunken log2 fold change: 0.211

Sequence: RRIRIRPPRLPRPRPRPPMTPRP
- shrunken log2 fold change: -0.0813

Sequence: RRIRLRPPRLPRPRPRPHFEPRP
- shrunken log2 fold change: 0.118

Sequence: RRIRYRPPRLPRPRPRPNTMPRP
- shrunken log2 fold change: -1.1

Sequence: RRIRNRPPRLPRPRPRPKGHPRP
- shrunken log2 fold change: -0.104

Sequence: RRIRSRPPRLPRPRPRPQQFPRP
- shrunken log2 fold change: -0.123

Sequence: RRIRDRPPRLPRPRPRPFKYPRP
- shrunken log2 fold change: 0.0966

Sequence: RRIRKRPPRLPRPRPRPHKMPRP
- shrunken log2 fold change: 0.105

Sequence: RRIRIRPPRLPRPRPRPGKGPRP
- shrunken log2 fold change: -0.185

Sequence: RRIRRRPPRLPRPRPRPQMIPRP
- shrunken log2 fold change: -0.0521

Sequence: RRIRIRPPRLPRPRPRPVKQPRP
- shrunken log2 fold change: 0.101

Sequence: RRIRMRPPRLPRPRPRPMGCPRP
- shrunken log2 fold change: 0.0612

Sequence: RRIRWRPPRLPRPRPRPRMYPRP
- shrunken log2 fold change: -0.196

Sequence: RRIRLRPPRLPRPRPRPLLTPRP
- shrunken log2 fold change: 0.0657

Sequence: RRIRCRPPRLPRPRPRPDPPPRP
- shrunken log2 fold change: 0.52

Sequence: RRIRTRPPRLPRPRPRPWPNPRP
- shrunken log2 fold change: -0.124

Sequence: RRIRFRPPRLPRPRPRPPREPRP
- shrunken log2 fold change: 0.43

Sequence: RRIRVRPPRLPRPRPRPWGFPRP
- shrunken log2 fold change: 0.0189

Sequence: RRIRLRPPRLPRPRPRPLQHPRP
- shrunken log2 fold change: 0.212

Sequence: RRIRFRPPRLPRPRPRPHVIPRP
- shrunken log2 fold change: -0.196

Sequence: RRIRIRPPRLPRPRPRPEIPPRP
- shrunken log2 fold change: -0.0249

Sequence: RRIRSRPPRLPRPRPRPPKCPRP
- shrunken log2 fold change: -0.087

Sequence: RRIRHRPPRLPRPRPRPVRAPRP
- shrunken log2 fold change: 0.571

Sequence: RRIRNRPPRLPRPRPRPWSQPRP
- shrunken log2 fold change: -0.0539

Sequence: RRIRPRPPRLPRPRPRPLSCPRP
- shrunken log2 fold change: -0.0219

Sequence: RRIRPRPPRLPRPRPRPDLWPRP
- shrunken log2 fold change: 0.344

Sequence: RRIRLRPPRLPRPRPRPRTIPRP
- shrunken log2 fold change: 0.0584

Sequence: RRIRHRPPRLPRPRPRPCNTPRP
- shrunken log2 fold change: -0.416

Sequence: RRIRVRPPRLPRPRPRPVHTPRP
- shrunken log2 fold change: -0.0364

Sequence: RRIRARPPRLPRPRPRPSPYPRP
- shrunken log2 fold change: -0.333

Sequence: RRIRYRPPRLPRPRPRPWQTPRP
- shrunken log2 fold change: -0.0202

Sequence: RRIRDRPPRLPRPRPRPKKDPRP
- shrunken log2 fold change: 0.199

Sequence: RRIRMRPPRLPRPRPRPILLPRP
- shrunken log2 fold change: -0.0378

Sequence: RRIRQRPPRLPRPRPRPLIGPRP
- shrunken log2 fold change: -0.285

Sequence: RRIRSRPPRLPRPRPRPNGTPRP
- shrunken log2 fold change: -0.188

Source: the supplement of paper PMC9112550, “Optimization of the antimicrobial peptide Bac7 by deep mutational scanning” (BMC Biology, 2022)
